Test results published in the supplement of paper PMC9170038.

Tested on: MS2 coat protein
Assay: apparent KD of MS2 coat protein; designed switch direction (-1 OFF switch, 1 ON switch): -1; higher = weaker reporter binding
Outline: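 An oligonucleotide input, 200 uM small-molecule ligand, or no input was present during titration of SNAP-549-labelled MS2 coat protein, which was doubled from 0.7 or 1.5 nM to 3 µM. Designed RNA switches had been transcribed on Illumina chips by stalled E. coli RNA polymerase. Apparent KD per design is the median over clusters of curves fitted to normalised cluster fluorescence.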

[1] = Eterna round: R95, input ligand: FMN 200 uM
[2] = Eterna round: R95, input ligand: microRNA oligo, concentration not stated
[3] = Eterna round: R95, input ligand: none
[4] = input ligand: microRNA oligo, concentration not stated

Sequence | apparent KD of MS2 coat protein (input ligand: FMN 200 uM) | apparent KD of MS2 coat protein (input ligand: none) | apparent KD of MS2 coat protein [1] | apparent KD of MS2 coat protein [2] | apparent KD of MS2 coat protein [3] | apparent KD of MS2 coat protein [4]
CGUUCGCGAGGAUAUGCAUUCGAGUCCAUUACGUGUCUGGGACUUGAGGAUCACCCAAGUAGAAGGCGCCUCAC [salish99_ex2_r4_647] (Eterna round: R97, puzzle: Exclusion 2) | 131 nM | 153 nM |  |  |  | 
CGUUGGCGAGGAUAUACAUGAGGAUCACCCAUGUGAGAGAAAAAAGUGAGGAAGAAAAGUAGAAGGCGCUGACG [salish99_ex3_r3_050] (puzzle: Exclusion 3) |  |  | 350 nM | 101 nM | 34.9 nM | 
CGUUGGCGAGGAUAUACAUGAGGAUCACCCAUGUGAGAGAAAAAAGUGAGGAAGAAAAGUAGAAGGCGCUGACU [salish99_ex3_r3_051] (puzzle: Exclusion 3) |  |  | 101 nM | 31.7 nM | 54.3 nM | 
CUAAAAGUCGAGGAUAUGCACCGUUUCGCUGACGCAGAAGGCGACACAUGAGGAUCACCCAUGUCGGUACGCGA [salish99_ex6_r004_456] (Eterna round: R97, puzzle: Exclusion 6) | 27.7 nM | 23.5 nM |  |  |  | 
CUAACAUGCUGGUGAUCAUACAUGAGGAUCACCCAUGUAACAAGCUUUUUGCUCGUCUUAUAAGAUCACCAGCAUGU [Stov1/9-A4] (Eterna round: R97, puzzle: Sensor, turn-off variant 1) | 16.2 nM | 15.5 nM |  |  |  | 
CUAACAUGCUGGUGAUCAUACAUGAGGAUCACCCAUGUAACAAGCUUUUUGCUCGUCUUAUAAUUUAAGAUCACCAG [Stov1/7-A4] (Eterna round: R97, puzzle: Sensor, turn-off variant 1) | 17 nM | 14.1 nM |  |  |  | 
CUAAGUUGGUAAGGAUAUCCUACAUUAUUCUGACCCGUGCAAGCUACAUGAGGAUCACCCAUGUGGGAGAAGGUGCGUUAAAGU [Design 4] (Eterna round: R96, puzzle: Exclusion NG 2) | 23.7 nM | 24 nM |  |  |  | 21.3 nM
CUAGAUCUUCGGAUCUAGGACAUGAGGAUCACCCAUGUCACGAGCAGAUCCUCAUGCAAGCUUUUUGCUCGUCUUAU [Sensor v3 - Turn-off variant 1 - 36] (puzzle: Sensor v3, turn-off variant 1) |  |  | 133 nM | 17.4 nM | 70.1 nM | 
CUAGCGAAUGUAGGAUAUCGGACUGUUUCAGUCUGAGAAGGACAUGAGGAUCACCCAUGUGUAGCUACGUGAGUAGCACGCUAG [JL ENG1 3.89] (Eterna round: R96, puzzle: Exclusion NG 1) | 58.7 nM | 27.5 nM |  |  |  | 16.1 nM
CUAGCGAUUGUAGGAUAUCGGACUGUUUCAGUCUGAGAAGGACAUGAGGAUCACCCAUGUGAACCAACGUGAGUUGGACGCUAG [JL ENG1 3.82] (Eterna round: R96, puzzle: Exclusion NG 1) | 51.1 nM | 19.4 nM |  |  |  | 12.5 nM
CUAGCGUAUGUAGGAUAUCGGACUGUUUCAGUCUGAGAAGGACAUGAGGAUCACCCAUGUAUUGCUACGUGAGUAGCUCGCUAG [JL ENG1 3.93] (Eterna round: R96, puzzle: Exclusion NG 1) | 30.1 nM | 19.6 nM |  |  |  | 16.8 nM
CUAUCGUGAGGAUAUGACCCAUAAGCACUAAAGUAGGUGAGUCAGAAGGCACAUGAGGAUCACCCAUGUGGACC [Eternabot (L1) Solution 47] (Eterna round: R97, puzzle: Exclusion 4) | 59.8 nM | 21.9 nM |  |  |  | 
CUAUGAGCUGAGGAUAUCUGCAGGUUGUGCCUGGGAGAAGGCAGCACAUGAGGAUCACCCAUGUGACCGAAAUA [Mod Ex6 A.17 by Nando] (Eterna round: R97, puzzle: Exclusion 6) | 195 nM | 50.8 nM |  |  |  | 
CUAUUCCGAGGAUAUACAUGAGGAUCACCCAUGUCGGGCCUCAGCGUUUAGCGCGUAAGUAGAAGGUGGGUUUC [JL Riri mod 7] (puzzle: Exclusion 3) |  |  |  | 27.4 nM |  | 
CUCAGACAUGAGGAUCACCCAUGUGAGGAUAUGAUGCGAUCGUCGAAAGACGAUAGCAUCAGAAGGUACAAAUG [Fiskers Ex 1 - 20] (puzzle: Exclusion 1) |  |  |  | 55.3 nM |  | 
CUCAGGUCAGGAUAUGUAGACCGGUGCAGACACUACGGGAAACAGAAGGGACAUGAGGAUCACCCAUGUUCGUA [EX4 B.11] (Eterna round: R97, puzzle: Exclusion 4) | 45 nM | 30.4 nM |  |  |  | 

Sequence | apparent KD of MS2 coat protein (input ligand: FMN 200 uM) | apparent KD of MS2 coat protein (input ligand: none) | apparent KD of MS2 coat protein [1] | apparent KD of MS2 coat protein [2] | apparent KD of MS2 coat protein [3] | apparent KD of MS2 coat protein [4]
CUCAUGCCUGAGGAUAUGCUGUACAAAAGUACUGCAGAAGGUAGAACAUGAGGAUCACCCAUGUGGCGAAAGCC [Omei Ex G3] (Eterna round: R97, puzzle: Exclusion 6) | 171 nM | 45.8 nM |  |  |  | 
CUCAUGUAAGGAUAUUGGCACAUGGAACCUGCUGGUUCUGAUAAGAAGGUACAUGAGGAUCACCCAUGUCCUCG [Eternabot (L2) Solution 89] (Eterna round: R97, puzzle: Exclusion 4) | 48.7 nM | 47.5 nM |  |  |  | 
CUCCAUACAGGAUAUACAGGCGGUGGAGCCGUAUGAUCAACACAUGAGGAUCACCCAUGUAGAAGGGUGUGUAC [Eternabot (L2) Solution 25] (Eterna round: R97, puzzle: Exclusion 2) | 436 nM | 642 nM |  |  |  | 
CUCCCUUCAGGAUAUACAUGAGGAUCACCCAUGUGUUCCAGCUAGGAAACUAGCAAAUGUAGAAGGGAAGGGAG [Mat - Exclusion 3 - JL Mod - D4] (Eterna round: R97, puzzle: Exclusion 3) | 183 nM | 90 nM |  |  |  | 
CUCCGACAUGAGGAUCACCCAUGUGAGGAUAUGUAGCCCAGUUGGACAACUCGAGGUAGCAGAAGGCACAUGCC [Eternabot (L2) Solution 64] (Eterna round: R97, puzzle: Exclusion 1) | 57.6 nM | 27 nM |  |  |  | 
CUCCGCGCUGUCAGGAUAUCCAGGGCCUACCGGCCGGAGAAGGGACAUGAGGAUCACCCAUGUUCGGGUUAGCA [Eszaquus] (puzzle: Brourd's mod of Exclusion 4) |  |  |  | 13.3 nM |  | 
CUCCGGCGUGUAGGAUAUGGAUCCGAUUAGGAUCCAGAAGGACAUGAGGAUCACCCAUGUACAUGUAAACAGUCAUCACCGGGC [salish99_ExNG1_r04_205] (Eterna round: R96, puzzle: Exclusion NG 1) | 131 nM | 21.4 nM |  |  |  | 18.2 nM
CUCCGGCGUGUAGGAUAUGGAUCCGAUUAGGAUCCAGAAGGACAUGAGGAUCACCCAUGUACAUGUCGUCGGUCGUCACCGGGC [salish99_ExNG1_r04_210] (Eterna round: R96, puzzle: Exclusion NG 1) | 52.7 nM | 32.2 nM |  |  |  | 22.2 nM
CUCCUCAUGACGCCUAAACACAUGAGGAUCACCCAUGUACAGGCUUUUUGUCGUCUUAUAAUAAAACCGAGGAGGCG [Inletice] (puzzle: Sensor v3, turn-off variant 1) |  |  | 14.6 nM | 65.9 nM | 15 nM | 
CUCCUCAUGACGCCUAAAGACAUGAGGAUCACCCAUGUACAGGCUUUUUGUCGUCUUAUAAUAAAACCGAGGAUGCG [Edmate] (puzzle: Sensor v3, turn-off variant 1) |  |  | 19.2 nM | 45.9 nM | 20.1 nM | 
CUCCUCAUGGCGCCUAAACACAUGAGGAUCACCCAUGUGCAGGCUUUUUGCCGUCUUAUAAUAAAACCGAGGAUGCG [Vegequ] (puzzle: Sensor v3, turn-off variant 1) |  |  | 16.9 nM | 77.8 nM | 16.2 nM | 
CUCGGACAUGAGGAUCACCCAUGUGAGGAUAUGGCGCUAUCGUCAUUAGACGAUUGCGCCAGAAGGCACAAAUG [LRO-Excl1-27] (puzzle: Exclusion 1) |  |  |  | 80.7 nM |  | 
CUCGGACAUGAGGAUCACCCAUGUGAGGAUAUGGUGCUAUCGUCAUUAGACGAUUGCGUUAGAAGGCACAUUUU [LRO-Excl1-29] (puzzle: Exclusion 1) |  |  |  | 29.5 nM |  | 
CUCGUGCAGCAAAGCUGUACGAGUACAUGAGGAUCACCCAUGUAGGAUAUGGUACGCAAAGCGUGCUAGAAGGACGUGUGUAUG [Mat - Exclusion NG 3 - Mod of JL - D91] (Eterna round: R96, puzzle: Exclusion NG 3) | 134 nM | 58 nM |  |  |  | 28.7 nM
CUCGUGUAAGGAUAUGCGAGCCACGGAAAUAAAACGUGGAGGUAGAAGGUACAUGAGGAUCACCCAUGUAAAAC [Anonveat] (puzzle: Exclusion 4) |  |  |  | 24.3 nM |  | 
